molecular target: T1, human recombinant HLA-B*08:01 (human); assay: pMHC dissociation at 37 C (b2m on heavy chain); mean half-life grade (+ >2 h, ++ >4 h, +++ >6 h, ++++ >10 h)
T1 construct: Expressed in E. coli and purified; Assay done by ImmunAware
Experimental: The peptide-MHC stability for HLA-B*08:01 peptides was performed by ImmunAware (Copenhagen, Denmark). The data were obtained using a proximity based, homogenous, real-time assay to measure the dissociation of peptides from HLA class I molecules. First human recombinant HLA-B*08:01 and b2m were expressed in E. coli and purified in a series of liquid chromatography based steps (Ferre et al., 2003; Ostergaard et al., 2001). Afterwards, the stability of a peptide-MHC complex (pMHC) can be determined by measuring the amount of b2m associated with the MHC heavy chain over time at 37° C. (Harndahl et al., 2012). The stability of each pMHC, expressed as the half life of b2m associated with the respective heavy chain, was calculated by fitting the data to a one-phase dissociation equation.

First: EPVKKSRL
Second: AAMSRYEL
The “mean half-life (T1/2) of peptide-MHC complex” value (shortened to “mean half-life”) of the first is higher: 6 to 10 h for the first, 4 to 6 h for the second.

First: DLKYNALDL
Second: LLKAEPLAF
The “mean half-life” value of the first is higher: 6 to 10 h for the first, 4 to 6 h for the second.

LSYNKYLQL and NPNLKTLL fall in the same range of “mean half-life” value: 4 to 6 h for the first, 4 to 6 h for the second.

First: LPFLRENDL
Second: LPMLKVLNL
The “mean half-life” value of the first is higher: 4 to 6 h for the first, 2 to 4 h for the second.

Compared with YKKLRTSSF, YVKERSKAM is higher in “mean half-life” value: 4 to 6 h for the first, 6 to 10 h for the second.

Compared with FQKLKLLSL, HAKEKLTAL is higher in “mean half-life” value: 2 to 4 h for the first, 6 to 10 h for the second.

EAKRHLLQV and HIFLRTTL fall in the same range of “mean half-life” value: 4 to 6 h for the first, 4 to 6 h for the second.

From patent publication US20180291082A1 (IMMATICS BIOTECHNOLOGIES, published 2018)
